Experimental data from patent US20250381223A1 (UTC THERAPEUTICS SHANGHAI, published 2025).

B1: A40C2828 (other)
membrane fusion protein with an anti-CD40 antibody part: QVQLVQSGAEVKKPGASVKVSCTASGFNIKDYYVHWVKQAPGQGLEWMGRIDPEDGDSKYAPKFQGKATMTADTSTSTVYMELSSLRSEDTAVYYCTTSYYVGTYGYWGQGTLVTVSSGGGGSGGGGSGGGGSDIQMTQSPSSLSASVGDRVTITCSASSSVSYMLWFQQKPGKAPKLLIYSTSNLASGVPSRFSGSGSGTDFTLTISSLQPEDFATYYCQQRTFYPYTFGGGTKVEIKRTASIEVMYPPPYLDNEKSNGTIIHVKGKHLCPSPLFPGPSKPFWVLVVVGGVLACYSLLVTVAFIIFWVRSKRSRLLHSDYMNMTPRRPGPTRKHYQPYAPPRDFAAYRS
notes: also called new A40C28; New A40C28
B2: anti-mesothelin scFv-M12 (scFv)
scFv: AIRLTQSPSLLSASVGDRVTVTCRASQGGGNYLAWYQQKPGKAPKLLIYGASKLQSGVPSRFSGSGSGTEFTLTISSLQPEDFATYYCQQLNSYPVTFGQGTKVDIKGGGGSGGGGSGGGGSEVQLVESGAEVKKPGASVKVSCKASGYTFTTYYIHWVRQAPGQGLEWMGIINPSSGSTTYTQKFQGRVTMTRDTSTSTVYIELSGLRSEDTAVYYCARGETLRGYFDYWGQGTLVTVSS
notes: On mRNA-electroporated T cells as CAR; also called Meso-CAR (M12)

How the values were obtained:
CD40-Fc [1] = biological target: T1, CD40-Fc ( for this staining reagent …, UniProt P25942); experiment: flow cytometry, lentivirus-transduced T cells, CD40-Fc 2 µg/mL + PE-anti-Fc; UTD 0.66, M12 1.16
T1 construct: soluble Fc fusion; Staining reagent, detected with PE-anti-Fc
Procedure: (§1) The transduction efficiency of the CAR-T cells was detected as follows: […] CAR-T cells were plated into each well of a 96-well plate, and the plate was washed once with PBS. 50 μL of Meso-Fc or CD40-Fc protein at a final concentration of 2 μg/mL was added to each well, and the mixture was incubated for 30 min at 4° C. The cells were washed 3 times with PBS, and 50 μL of PE-anti-Fc antibody at a final concentration of 1 μg/mL was added to each well. The mixture was incubated at 4° C. for 30 min. After being washed twice with PBS, the cells were detected by a flow cytometer.

CD40-Fc [2] = biological target: T2, CD40-Fc (human, UniProt P25942); experiment: flow cytometry of T cells electroporated with 2 µg M12 CAR mRNA alone; CD40-Fc + PE-anti-Fc
T2 construct: part fused to Fc; staining reagent of the flow cytometry; also called recombinant human CD40-Fc antigen protein

[3] = biological target: T3, mesothelin-Fc recombinant protein (human, UniProt Q13421 296-580, limits assumed); experiment: flow cytometry, T cells with CAR mRNA, mesothelin-Fc + PE-anti-IgG-Fc; Control 0.63
T3 construct: construct not described; also called Meso-Fc; not shown: Fc part
T3 sequence (Q13421 other isoform, or with tags, fused parts or gaps limits assumed): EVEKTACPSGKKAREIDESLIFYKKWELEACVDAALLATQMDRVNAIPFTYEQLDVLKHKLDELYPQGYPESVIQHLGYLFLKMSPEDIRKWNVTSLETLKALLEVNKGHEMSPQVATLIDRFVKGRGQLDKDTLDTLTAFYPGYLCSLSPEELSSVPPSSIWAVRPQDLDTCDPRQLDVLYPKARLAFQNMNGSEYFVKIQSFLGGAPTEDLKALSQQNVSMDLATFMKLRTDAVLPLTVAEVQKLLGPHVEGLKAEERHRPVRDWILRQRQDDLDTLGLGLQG
Procedure: Mesothelin CAR mRNA obtained in Example 26 above was introduced into A549 tumor cells and T cells by electroporation, and the procedures are as follows: A549 tumor cells and T cells were collected and washed 3 times with the Opti-MEM medium. The cell pellet was resuspended in the Opti-MEM medium and the cell concentration was adjusted to 1×10e7 cells/mL. 10 μg of RNA was aliquoted into 1.5-mL EP tubes, 100 μL of T cells or A549 cells were added, followed by mixing well. 100 μL of cells mixed with RNA were added to the BTX electroporation cuvette and slight tapping was performed to avoid air bubbles. Electroporation was performed using a BTX instrument under the following parameters: for T cells: 500 V voltage, 0.7 ms; for A549 tumor cells: 300 V voltage, 0.5 ms. The cells were then transferred to a pre-warmed medium and cultured at 37° C. The binding of mesothelin CART cells to the mesothelin-Fc recombinant protein was determined by FACS staining. […] T cells without CAR molecules served as the control (“Mock”).

CD40-Fc [4] = biological target: T1, CD40-Fc; experiment: flow cytometry, lentivirus-transduced T cells, CD40-Fc + PE-anti-Fc
Procedure: as §1

Binder	percent of cells in the gate (CD40-Fc [1]) [%]	binding result (CD40-Fc [2])	percent of cells in the gate [3] [%]	binding result (CD40-Fc [4])
B1	39.8	–	–	–
B2	–	no binding	86.5	no binding (tested: 2 µg/mL)
